This passage reports binding result and Kd results from US20200138864A1 (CRAGE MEDICAL, published 2020).

In general, Kd refers to the free concentration of one partner at which half of the binding sites on the other are occupied at equilibrium, for simple one-to-one binding.

The target of assay [1] is T1, reference peptide RMFS1 complexed with HLA on T2 cells (T2/RMFS1).
T1 construct: whole, on cells
As to the kind of experiment: flow cytometry on T2/RMFS1 cells. (In general: A flow cytometer gives signals particle by particle.)

In assay [2] the target is T2, reference peptide RMFS2 complexed with HLA on T2 cells (T2/RMFS2).
T2 construct: whole, on cells
Description: flow cytometry on T2/RMFS2 cells.

In assay [3] the target is T3, RMF/HLA.A0201 complex (WT1 peptide RMF complexed with recombinant HLA.A0201-BSP and human β2m) (human, labeled with a biotinylation kit (BirA) on the BSP).
T3 construct: also called RMF/HLA complex; WT1 peptide (RMF) complexed with HLA; not shown: biotin protein ligase BirA substrate peptide (BSP)
As to the kind of experiment: SPR (Biacore T200), 1:1 Langmuir fit. For orientation: SPR reads the build-up and loss of mass on a sensor chip optically.

In assay [4] the target is T3, RMF/HLA.A0201 complex (WT1 peptide RMF …). As to the kind of experiment: ELISA with 2.5, 0.5 and 0.2 ug/ml RMF/HLA complex, scFv clone. On the technique in general: An ELISA detects its analyte on a solid surface through an enzyme-linked reagent.

Substitutions are numbered along the chain they refer to.

B1: antigen binding unit 2 (ABU2) (scFv)
scFv: GVQLVESGAEVKKPGASVKVSCKASGYTFTELSMHWVRQAPGKGLEWMGLVDPEDGETIYAEKFQGRVTITADTSTDTAYMELSSLRSEDTAVYYCATDLAAGTNDYWGKGTLVTVSSGGGGSGGGGSGGGGSQAVVTQEPSVTVSPGGTVTLTCGSDTGAVTSGHYPYWFQQKPGQAPRTLIYDTSNKHSWTPARFSGSLLGGKAALTLSGAQPDDEADYYCLLSYSGEWVFGGGTKVTVL
notes: also called parent ABU2; parental ABU2
Turning to B1, the binding result in assay [1] and in assay [2] was “no binding” each time.

B2: ABU2 (ScFv_Fc) (Fc fusion, not shown: a dimerising Fc or GST)
scFv: B1 scFv
notes: The format is printed only on the sheet; also called parent ABU2 as scFv-Fc
Take B2: the equilibrium dissociation constant (Kd) in assay [3] was determined as 1.47 nM.

B3: ABU5 (scFv)
scFv: B1 scFv with D52V, E54D
In the case of B3, the binding result in assay [4] is recorded as “binds”.

B4: ABU4 (scFv)
scFv: B1 scFv with D52V, E54A
Take B4: the binding result in assay [4] is “binds”.

B5: ABU3 (ScFv_Fc) (Fc fusion, not shown: a dimerising Fc or GST)
scFv: B1 scFv with T159S, A161P, S164R, Y184D, N188R
notes: The format is printed only on the sheet
For the molecule B5, the Kd in assay [3] came to 0.0467 nM.
